For assay [1], the target named is peptic-tryptic-pancreatinic digest of wheat gliadin.
The target is the same in assay [2]. The source holds these as a separate data set.
The target is the same in assay [3]. The source holds these as a separate data set.

Like-named read-outs stand apart in the source and are kept apart here.

With “Combination (1:1) of pig intestinal extract and crude caricain (pool or library)”, the Protection Index (%) in RLL assay in assay [1] was determined as 92%. Regarding “Fraction 4 from CM Sephadex C-50 ion exchange chromatography of papaya latex (pool or library)”, the Protection Index (%) in RLL assay in assay [2] is 84%. Substance “caricain (EC 3.4.22.30) (from UniProt P10056) (enzyme)” gave a Protection offered against gliadin in RLL Assay in assay [3] of 32.3%.

In assay [1], crude caricain (pool or library) gave a Protection Index (%) in RLL assay of 71%.

“pig intestinal enzyme extract (pool or library)”: in assay [1], the Protection Index (%) in RLL assay was 61%.

Values taken from patent US10457929B2.
